# Where no end group is shown, it is not given here.
# T1: SCRIB PDZ domain 2 (human, UniProt Q14160 862-950)
# T1 chain: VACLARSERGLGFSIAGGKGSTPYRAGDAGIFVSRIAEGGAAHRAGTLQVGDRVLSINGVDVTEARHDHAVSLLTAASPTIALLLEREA
# T2: SCRIB PDZ domain 3 (human, UniProt Q14160 1004-1093)
# T2 chain: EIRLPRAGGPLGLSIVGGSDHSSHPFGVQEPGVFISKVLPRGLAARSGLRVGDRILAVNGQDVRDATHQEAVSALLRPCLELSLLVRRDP
# Key:
# Experiment in all cases: ELISA
# [1] = target: SCRIB PDZ domain 1 (human, UniProt Q14160 728-815)
# [2] = target: T1, SCRIB PDZ domain 2
# [3] = target: T2, SCRIB PDZ domain 3
# SCRIB PDZ domain 1, sequence (Q14160 728-815): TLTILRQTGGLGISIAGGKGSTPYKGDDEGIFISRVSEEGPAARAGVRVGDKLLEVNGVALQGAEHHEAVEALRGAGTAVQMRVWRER
binder,measurement,setting,value
"KHFRETEV (not fully specified) [peptide 2, C terminus of the HTLV-1 Tax protein]",IC50,[1],3.4 µM
same,IC50,[2],5.2 µM
same,IC50,[3],58 µM
RQIKIWFQNRRMKWKKRSWFETWV (not fully specified) [designed SCRIB PDZ-binding peptide Π-RSWFETWV (peptide 14)],IC50,[1],2.2 µM
same,IC50,[2],4.7 µM
same,IC50,[3],3.9 µM

# Reference: article PMC2553845 (2008)
